The values below are quoted from earlier work in publication PMC9020725.

Series [1] addresses ankyrin band 3 binding domain (Homo sapiens) (UniProt P16157).
Series [2] has as its target beta-spectrin repeats 10-13 (Homo sapiens) (UniProt P11277).
UniProt P11277, sequence (P11277 1275-1688): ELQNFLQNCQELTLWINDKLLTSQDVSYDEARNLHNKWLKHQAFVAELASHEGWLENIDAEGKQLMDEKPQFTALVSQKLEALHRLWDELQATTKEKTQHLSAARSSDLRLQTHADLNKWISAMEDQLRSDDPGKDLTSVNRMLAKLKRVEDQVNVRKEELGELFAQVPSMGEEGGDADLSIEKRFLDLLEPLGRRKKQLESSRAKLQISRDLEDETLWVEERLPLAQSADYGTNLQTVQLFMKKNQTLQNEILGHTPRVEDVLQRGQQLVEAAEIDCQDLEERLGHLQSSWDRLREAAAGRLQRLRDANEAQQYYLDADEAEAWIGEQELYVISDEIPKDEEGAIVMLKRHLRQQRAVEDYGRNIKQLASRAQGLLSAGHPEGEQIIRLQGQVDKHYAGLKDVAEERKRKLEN

UniProt P16157, sequence (P16157 1-827): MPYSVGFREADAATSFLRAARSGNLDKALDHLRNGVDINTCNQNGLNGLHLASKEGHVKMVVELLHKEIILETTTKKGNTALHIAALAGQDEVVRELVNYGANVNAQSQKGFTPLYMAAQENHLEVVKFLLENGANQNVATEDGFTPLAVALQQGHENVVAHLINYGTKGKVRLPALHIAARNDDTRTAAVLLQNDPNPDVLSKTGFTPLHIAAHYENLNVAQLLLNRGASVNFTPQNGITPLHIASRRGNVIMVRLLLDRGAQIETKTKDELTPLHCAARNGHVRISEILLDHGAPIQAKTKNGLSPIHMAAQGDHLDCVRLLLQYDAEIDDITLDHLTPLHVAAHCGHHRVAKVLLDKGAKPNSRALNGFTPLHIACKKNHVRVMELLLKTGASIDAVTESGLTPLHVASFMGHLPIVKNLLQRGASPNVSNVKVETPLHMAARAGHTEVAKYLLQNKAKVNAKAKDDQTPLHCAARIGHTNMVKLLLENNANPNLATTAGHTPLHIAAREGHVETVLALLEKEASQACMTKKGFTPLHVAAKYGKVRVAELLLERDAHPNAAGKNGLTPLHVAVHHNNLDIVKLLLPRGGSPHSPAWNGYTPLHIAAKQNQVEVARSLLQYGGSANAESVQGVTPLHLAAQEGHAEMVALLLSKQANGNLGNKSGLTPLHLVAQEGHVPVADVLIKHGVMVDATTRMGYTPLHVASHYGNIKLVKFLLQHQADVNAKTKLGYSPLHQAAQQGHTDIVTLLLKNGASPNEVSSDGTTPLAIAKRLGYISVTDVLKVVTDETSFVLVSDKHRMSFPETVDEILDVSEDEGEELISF

In general, Kd refers to the concentration at which binding is half-saturated. For the substance KAHRP (from UniProt P09346), the values for the dissociation constant (Kd) in series [1] and in series [2] were 1550 nM and 50 µM, respectively.
